# Results reported in patent US7572444B2, “Binding proteins specific for human matriptase” (Amgen Fremont Inc., priority 2004, dated 2009).
# T1: Biotinylated-MTSP1 (Homo sapiens, UniProt Q9Y5Y6)
# T1 sequence (Q9Y5Y6 615-855 limits assumed): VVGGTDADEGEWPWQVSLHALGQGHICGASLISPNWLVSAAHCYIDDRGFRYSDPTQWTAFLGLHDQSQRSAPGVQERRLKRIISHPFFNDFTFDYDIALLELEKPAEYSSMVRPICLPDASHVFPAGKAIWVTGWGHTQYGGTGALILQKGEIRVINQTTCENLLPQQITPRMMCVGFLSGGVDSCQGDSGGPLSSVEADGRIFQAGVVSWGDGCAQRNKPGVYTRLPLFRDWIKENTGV
# B1: HAI-1: the natural inhibitor of MT-SP1 (protein, UniProt O43278 36-529, looked up)
# Kunitz-type protease …: GPPPAPPGLPAGADCLNSFTAGVPGFVLDTNASVSNGATFLESPTVRRGWDCVRACCTTQNCNLALVELQPDRGEDAIAACFLINCLYEQNFVCKFAPREGFINYLTREVYRSYRQLRTQGFGGSGIPKAWAGIDLKVQPQEPLVLKDVENTDWRLLRGDTDVRVERKDPNQVELWGLKEGTYLFQLTVTSSDHPEDTANVTVTVLSTKQTEDYCLASNKVGRCRGSFPRWYYDPTEQICKSFVYGGCLGNKNNYLREEECILACRGVQGGPLRGSSGAQATFPQGPSMERRHPVCSGTCQPTQFRCSNGCCIDSFLECDDTPNCPDASDEAACEKYTSGFDELQRIHFPSDKGHCVDLPDTGLCKESIPRWYYNPFSEHCARFTYGGCYGNKNNFEEEQQCLESCRGISKKDVFGLRREIPIPSTGSVEMAVAVFLVICIVVVVAILGYCFFKNQRKDFHGHHHHPPPTPASSTVSTTEDTEHLVYNHTTRPL
# Biological target: T1, Biotinylated-MTSP1
# Assay: Competition binding assay on sc95/96 coated plate
# Conditions: 125 ng/ml Biotinylated-MTSP1; HAI-1 titrated from 2 μg/ml, sc95/96 from 10 μg/ml
# Description: This experiment was set-up to determine whether or not HAI-1 (the natural inhibitor of MT-SP1) would compete for binding to MT-SP1 with 95/96.
# Bound MTSP was then detected with SA-pod.
molecule,measurement,value
B1,competition for binding of MT-SP1 to sc95/96 coated plate,prevented the binding of MT-SP1 to the plate
